The nanobody polyreactivity screen of Harvey et al. (2022)

Experiment: yeast display, Sf9 membrane polyspecificity reagent, FACS + sequencing; frameworks hold sequencing errors
How it was run: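 A nanobody's polyreactivity label depends on the gate it was sorted from. Yeast display cells were stained with 10% biotinylated, detergent-solubilized Sf9 membrane reagent for 1 hour at 4 °C, enriched on streptavidin microbeads and sorted by FACS. The low and high (top ~1%) gates were set on anti-HA fluorescence for expression and streptavidin fluorescence for reagent binding.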

Sequence | polyreactivity (PSR sort gate)
QVQLVESAGGLVQAGGSLRLSCDASGRTFRYYVMGWYRQAPGNERELVAAISWSGCRTNYADSVKGRYTISGDNAKNTVYLQMNSLKPEDSAVYYCNAPRPALRRYDYWGQGTQVTVSS | high polyreactivity
QVQLVESGGGLVQAGGSLRLSCAASGSTFSQYAMGWYRQAPGKERELVAAITTSDGSTNYADSVKGRFTISRDNAKNTVYLQMNSLKPEDTAVYYCNTEYFYYSFGYWGQGTQVTVSS | low polyreactivity
QVQLVESGGGVVQAGGSLRLSCAASGSIFISNAMGWYRQAPGTERELVAAITLTGTSTYYADSVKGRFTISRDNAKNTVYLQMNSLKPEDTAVYYCAAEYYYIVTYDFGYWGQGTQVTVSS | low polyreactivity
QVQLVESGGGLVQAGGSLRLSCAASGLIFTRYAMGWYRQAPGKERELVAAISYSGTSTYYADSVKGRFTISRDNAKNTVYLQMNSLKPEDTAVYYCAAAYSRGSGVGRYRLDYWGQGTQVTVSS | high polyreactivity
QVQLVESGGGLVQAGGSLRLSCAASGYTFAGNAMGWYRQAPGKERELVAAISRSGGRTYYAVSVKGRFTISRDNAKNTVYLQMNSLKPEDTAVYYCAAYFPRTLFEFGYWGQGTQVTVSS | high polyreactivity
QVQLVESGGGLVQAGGSLRLSCAASGFIFPYNEMGWYRPAPGKERELGAAITSGSNTYYADSVKGRFTISRDNAKNTVYLQLNSLKPEDTAFYYCAARRRIYRSMGYWGQGSQVTVSS | low polyreactivity
QVQLVESGGGLVQAGGSLRLSCAASGRISYYYMGWYRQAPGKERELVAAISWNGGRTYYADSVKGRFTISRDNAKNTVYLQMNSLKPEDTAVYYCAARFYSRAFWPAYYYWGQGTQVTVSS | high polyreactivity
QFQLVESGGGLVQAGGSLRLSCAASGITFSFYAIVWYRQATGKERELVAAINGRGGRTYYADSVKGRFTISRDKAKNTFYLQMNSLKTEDTAVYFCAAVVWRTDYDYWGQGTQVTVSS | low polyreactivity
QVQLVESVGGLVQAGGSLRLSCAASGSIFYQYAMGWYRQAPGKERELVAAISRSGGSTYYADSVKGRFTISRDIAKNTVYLQMNSLKPEDTAVYYCAADQKSLRMYYWGQGTQVTVSS | high polyreactivity
QFQLVESGGGFVQAGGSLRLSCAASGRIFKTYMGWYRQAPGKESELVAGITRGGGSTYYADSVKGRFTISRDNAKNTVYLQMNSLKPEDTAVYYCAADAWSSYLDRPFDYWGQGTQVTVSS | high polyreactivity
QVQLVESGGGLVQAGGSLRLSCAASGGTFTKNAMGWYRQAPGKERELVAAINYSGGSTYYADSVKGRFTISRDNAKNTVYLQMNSLKPEDTAVYYCAADDYRDGFTQYDYWGQGTQVTVSS | low polyreactivity
QVQLVVSGGGLVQAGGSLRLSCSASGYTFWRYAMGWYRQAPGKERELVAAISQSGGRTYYADSVKGRYTISRDNAKNTVYLQMNSLKPEDTAVYFCATSYSQGDDYWGQGTQVTVSS | high polyreactivity
QVQLVESGGGLVQAGGRLRLSSAASGFIFWYYAMGWYRQEPGKERELVAAITSGGNTNYADSVKGRFTISRDNAKNTVYLQMNSLKPEDTAVYYCATGRASGREHDSWGQGTQVTVSS | low polyreactivity
QVQLVESWVGLVQAGGSLSLSCDASGFTILGYAMGWYRQAPGKERELVASITYGGDSTYYADSVKGRFTISRDNAKNTVYLQINCLKPEDTAVYYCNARPSYWWGGRLYGYWGQGSQVTVSS | high polyreactivity
QVQLVESGGGLVQAGGSLRLSCAASGSIFGRYVMGWYRQAPGKERELVARITQSGGSTYYADSVKGRFTISRDNAKNTVYLQMNSLKPEDTAVYYCAAATSWWWLYYWGQGTQVTVSS | high polyreactivity
QVQLQESGGGLVQAGGSLRLSCAASGNIFGTKSMGWYRQAPGKGREFVAAINDGGSTNYADSVKGRFTIGRDNAKNTVYLQMNSLKPEDTAVYYCAAQWVRSDYHTYWGQGTQVTVSS | high polyreactivity
KVQLVESGGGLVQAGGSLRLSCAASGSTFIGNAMGWYRQAPGKERELVAAISRTGGSTYADSVKGRFTISRDNAKNTVYLQMNSLKPEDTAVYYCNAVRWYYDYWGQGTQVTVSS | high polyreactivity
QDQLVESGGGLVQAGGSLRLSCAASGRIFFTNAMGWYRQAPGKERELVASIDDTGSTNYADSVKGRFTISRDNAKNTVYLQMNSLKPEDTATSTQGDYWGQGTQVTVSS | low polyreactivity
QVQLVESGGGLVQAGGSLRLICAASGRIFCNYAMGWSRQAPGKERELVAAISSGGNTYYADSVKGRFTISRDNAKNTVYLQMNSLKPEDSAVYYCNEVYVGWQYGYDYWGQGTQVTVSS | low polyreactivity
QVQLVESGGGLVQAGGSLRLSCAASGRIFYKNAMGWYRQAPGKERELVATITYSDGTTYYADSVKGRFTISRDNAKNTVYLQMNSLKPEDTAVYYCAAQTDSVESDYWGQGTQVTVSS | low polyreactivity
QVQLVESGGGLDQAGGSLRLSCAASGSISGYNAMGWYRQAPGKERELVASIRYTGARSYYADSGKGRFTISRDNAKNTVYLQMNSLKPEDTAVYYCAADSAYDVTSYGYWGQGTQVTVSS | low polyreactivity
QVQLLESGGGLVQAGGSLRLSCAASGRTFRRYAMGWYRQAPGKERELVAAISYSGTTTYYADSVKGRFTISRDNAKNTVYLQMNSLKPEDTAVYYCNKATAYGLDYWGQGTQVTVSS | high polyreactivity

Sequence | polyreactivity (PSR sort gate)
QVQLVESGGGLVQAGGSLRLSCAASGRTFYFYAMGWYRQAPGKERELVAAITSRVGRTYYADSVKGRFTISRDTAKNTVYLQMNSLKPEDTAVYDCAAEGVYRMGYWGQGTQVTVSS | high polyreactivity
QVQLVESGGGLVQAGGSLRLSCAASGRTFLYYTMGWYRQAPGKERELVAAITSGTSTNYADSVKGRFTIARDNAKNTVYLQMNSQKPEDTAVYYCNKRAARSLNGYPLYGYYSWGQGTQVTVSS | low polyreactivity
QVQLVESGGGLVQAGGSLRLSCAASGRTLGVYTMGWYRQAPGKERELVATISWDGGITYYADSVKGRFTISRDNAKNTVYLQMNSLKPEDTAVYYCAAVDHSYGWMDYWGQGTQVTVSS | low polyreactivity
QVQLVESGGGLVQAGGSLRLSCAASGTTFVIYAKGWYRQAPGKERELVASISGSGGSTFYADSVKGRFTISRDNAKITVYLQMNSLKPEDTAVYYCAAAVGVGRSGGTYDYWGQGTQVTVSS | low polyreactivity
QVQLVESGGGLVQAGGSLRLSCAASGRIFVYYAMGWYRQAPGKERELVAAISSGGDRTYYADSVKGRFTISRDNAKNTVYLQMNCLKPEDTAVYYCAKVYSTVKRYHWVGSRYDYWGQGTQVTVSS | high polyreactivity
QVQLVESGGGLVQAGGSLRLSCAASGSIFVLYAMGLYRQAPGTERELVAAITTGGGTNYADSVKGRFTISRDNAKNTVYLQINSLKPEDTAVYYCAADTGWYDDWTHDYWGQGTQVTVSS | low polyreactivity
QVQLVESGGGLVQAGGSLRLSCAASGSTFWPYAMGWYRQAPGKEREMVAAITWRGGRTYYADTVKGRFTISRDNAQNTVYLQMNSLKPEDTAVSYCNTGPWSRSWSQKYEYWGQGTQVTVSS | high polyreactivity
QVQLVESGGGLVQAGGSLRLSCAASGFTFQRYAKGWYRQAPGKERDLVAAITRNGGSTYYADSVKGRFTISRDNAKNTVYLQMNSLKPDDTAVYYCNAEWFQFYWYPHYKVTRYEYWGQVTQVTVSS | high polyreactivity
QVQLVESGGGLVQAGGSLRLRCAASGRTFCWYAMGWYRQAPGKERELVADITYSGGNTYYADSVKGRFTITRDNAKNTVYLQMNSLKPEDTAVYYCAAERKNKYDYWGQGTQVTVTS | high polyreactivity
QVQVVESGGGLVQAGGSLRLSCAASGSIFVGYAMGWYRQAPGKEREFVAGITARGGSTYYADSVKGRFTISCDNAKNTVYIPMNSQKPEDSAVYYCAADDGSENDYWGQGTQVTVSS | low polyreactivity
QVQLVESGGGLVQAGGSLRLSCAASGRIFKLYAMGWYRQAPGKERELVAAITRRGGSTSYADSVKGRFTISRDNAKNTVYLQMNSLKPEDTAVYYCNARSSETWHGDYWGQGTQVTVSS | high polyreactivity
QVQLVESGGGLVQAGGSLRLSCAASGSTSVPYTMGWYRQAPGKERELVAAISSSGGTTNYADSVKGRFTISRDNAKNTVYLQMNSLKPEDTAVYYCAAEYYQWVAYSWNEMYYWGQGTQVTVSS | low polyreactivity
QVQHVESGGGLVQAGGSLRLSCAASGRTFYYNDMGWSRQAPGKERELVAAISWSGVSTSYADSVKGRFTISRDNAKNTVYLQMNSLKPEDTAVYYCAADNDGWYFHITEYDYWGQGTQVTVSS | low polyreactivity
QVQLVESGGGLVQAGGSLRLSCAASGRIFRYYAMGWYRQAPGKERELVATISRSGGSTFYADSVKGRFTISRDNGKNPVYLQMNSLKPEDSAVYYCNARYQTGCYGYWGQGTQVTVSS | high polyreactivity
QVQLVESGGGLVQAGGSLRLSCAASGSTFRNYAMGWYRQAPGKERELVAAITKRGGTTYYADSVKGRFTISRDNAKNTVYLQMNSLKPEDTAVYYCAARVKGQWNTYDYWGQVTQVTVSS | high polyreactivity
QVQLVDSGGGLVQAGGSLRLSCAASGSTVQYYAMGWYRQAPGKERELVAAITHSGTRTYYADSVKGRFTISRDNAKNTVYLQINSLKPEDTAVYYCAARGYGKYDYWGQGTQVTVSS | high polyreactivity
QVHLVESGGGLVQAGGSLRLSCAASGRIFRQYAMGWYRQAPGKERELVAAISYSGGSTYYADSVKGRFTISRDYAKNTVYFQMNSLKPEDTAVYYCAATRWVPATGKFGYWGQGTQVTVSS | high polyreactivity
QVQLVESGGGLVQAGGSLRLSCAASGITFYDNDMGWYRQAPGKERELVAGITGTTVGTYYADSVKGRFTISRDYAKNTVYLQMNSLKPEDTAVYYCAATSLAGYYQFDYWGQGTQVTVSS | low polyreactivity
QVQLVESGGGLVQAGGSLRLSCAASGIIFAYNAMGWYRQAPGKEWELVAGITRNDGSTNYADSVKGRFTISRYNAMNTVYLQMNSLKPEDTAVYYCATGGWRWQRNPSYDYWGQGNQVTVSS | low polyreactivity
QVQLVESGGGLVQAGGSLRLSCAASGSTFRPNAMGWYRQAPGKERELVAAITSGGSTYYADSVKGRFTISRDNAKNTVYLQMNSLKPEDTAVYYCNKDKFWSYPVQVNLDYWGQGTQVTVSS | low polyreactivity
QVQLVESGGGLVHAGGSLSLSCAASGSTFKDYAMGWYRQAPGKERELVAAISKGATRTYYADSVKGRFTISRDNAKITVYLQINSLKPEDTAVYYCAADRLKFRGEYDYWGQGSQVTVSS | high polyreactivity
